Consider 2 substances from PMC10847504.

For the assay, the target named is CNOT1 of the CCR4-NOT complex, endogenous. Nature of the assay: GFP-trap pull-down, Western blot quantification. The following applies: lentivirally transduced neurons, read off a plot. In general terms: A western blot detects proteins with antibodies after separation by electrophoresis.
The mark [1] stands for this setting: NMDA 3 min, 10 min incubation after NMDA washout, parent: est. 1.4.
Setting [2] is: vehicle (no NMDA) 3 min, 10 min incubation after washout, parent: est. 0.94.

For “GFP-Ago2(WT) (from UniProt Q9UKV8) S387A”, the ratio to parent reads like this: under setting [1], 0.81; under setting [2], 0.75.
With “GFP-Ago2(WT) (from UniProt Q9UKV8) S387D”, the ratio to parent turned out to be 1.3 under setting [1] and 1.3 under setting [2].
